# Laboratory results as given in publication PMC6375917 (2019).
# B1: His-tagged but otherwise wild type Tim50 [yeast] / Tim23 [yeast (endogenous in yeast mitochondria)] (parent complex)
# chain 1: QKETKDDKPKSILTDDMLFKAGVDVDEKGQGKNEETSGEGGEDKNEPSSKSEKSRRKRQTSTDIKREKYANWFYIFSLSALTGTAIYMARDWEPQESEELKKDIDNGYTLSLMYKRFKARFNSMFTYFQEPPFPDLLPPPPPPPYQRPLTLVITLEDFLVHSEWSQKHGWRTAKRPGADYFLGYLSQYYEIVLFSSNYMMYSDKIAEKLDPIHAFVSYNLFKEHCVYKDGVHIKDLSKLNRDLSKVIIIDTDPNSYKLQPENAIPMEPWNGEADDKLVRLIPFLEYLATQQTKDVRPILNSFEDKKNLAEEFDHRVKKLKDKFYGDHKSGGNWAMTALGLGNSLGGSTKFPLDLIHEEGQKNYLMFMKMIEEEKEKIRIQQEQMGGQTFTLKDYVEGNLPSPEEQMKIQLEKQKEVDALFEEEKKKKKIAESK
# chain 2: MSWLFGDKTPTDDANAAVGGQDTTKPKELSLKQSLGFEPNINNIISGPGGMHVDTARLHPLAGLDKGVEYLDLEEEQLSSLEGSQGLIPSRGWTDDLCYGTGAVYLLGLGIGGFSGMMQGLQNIPPNSPGKLQLNTVLNHITKRGPFLGNNAGILALSYNIINSTIDALRGKHDTAGSIGAGALTGALFKSSKGLKPMGYSSAMVAAACAVWCSVKKRLLEK
# Variants of: B1
# Assay: pull-down (Ni-NTA agarose beads), immunoblot quantification; T, 10% of total material. B, 100% of bound material.; parent: 100; read off a plot
row,percent of parent [%],Variant
1,~37,chain 1 QKETKDDKPKSILTDDMLFKAGVDVDEKGQGKNEETSGEGGEDKNEPSSKSEKSRRKRQTSTDIKREKYANWFYIFSLSALTGTAIYMARDWEPQESEELKKDIDNGYTLSLMYKRFKARFNSMFTYFQEPPFPDLLPPPPPPPYQRPLTLVITLEDFLVHSEWSQKHGWRTAKRPGADYFLGYLSQYYEIVLFSSNYMMYSDKIAEKLDPIHAFVSYNLFKEHCVYKDGVHIKVLSKLNRDLSKVIIIDTDPNSYKLQPENAIPMEPWNGEADDKLVRLIPFLEYLATQQTKDVRPILNSFEDKKNLAEEFDHRVKKLKDKFYGDHKSGGNWAMTALGLGNSLGGSTKFPLDLIHEEGQKNYLMFMKMIEEEKEKIRIQQEQMGGQTFTLKDYVEGNLPSPEEQMKIQLEKQKEVDALFEEEKKKKKIAESK [chain 1 D235V]
2,~12,"chain 1 QKETKDDKPKSILTDDMLFKAGVDVDEKGQGKNEETSGEGGEDKNEPSSKSEKSRRKRQTSTDIKREKYANWFYIFSLSALTGTAIYMARDWEPQESEELKKDIDNGYTLSLMYKRFKARFNSMFTYFQEPPFPDLLPPPPPPPYQRPLTLVITLEDFLVHSEWSQKHGWRTAKRPGADYFLGYLSQYYEIVLFSSNYMMYSDKIAEKLDPIHAFVSYNLFKEHCVYKDGVHIKVLSKLNRDLSKVIIIDTDPNSYKLQPENAIPMEPWNGEADDKLVRLIPFLEYLATQQTKDVSPILNSFEDKKNLAEEFDHRVKKLKDKFYGDHKSGGNWAMTALGLGNSLGGSTKFPLDLIHEEGQKNYLMFMKMIEEEKEKIRIQQEQMGGQTFTLKDYVEGNLPSPEEQMKIQLEKQKEVDALFEEEKKKKKIAESK [chain 1 D235V, chain 1 R296S]"
3,~115,chain 1 QKETKDDKPKSILTDDMLFKAGVDVDEKGQGKNEETSGEGGEDKNEPSSKSEKSRRKRQTSTDIKREKYANWFYIFSLSALTGTAIYMARDWEPQESEELKKDIDNGYTLSLMYKRFKARFNSMFTYFQEPPFPDLLPPPPPPPYQRPLTLVITLEDFLVHSEWSQKHGWRTAKRPGADYFLGYLSQYYEIVLFSSNYMMYSDKIAEKLDPIHAFVSYNLFKEHCVYKDGVHIKDLSKLNRDLSKVIIIDTDPNSYKLQPENAIPMEPWNGEADDKLVRLIPFLEYLATQQTKDVSPILNSFEDKKNLAEEFDHRVKKLKDKFYGDHKSGGNWAMTALGLGNSLGGSTKFPLDLIHEEGQKNYLMFMKMIEEEKEKIRIQQEQMGGQTFTLKDYVEGNLPSPEEQMKIQLEKQKEVDALFEEEKKKKKIAESK [chain 1 R296S]
